Measured values reported in the supplement of paper PMC9233669.
Fewer inactive variants are shown than the library holds.

Legend:
biotinyl-Phe-oxazolone = test: self-aminoacylation, catalytic enhancement (BFO) (fold over background); higher = more active; k-Seq, kA / k0A0; sequences stand for … in GGGAAUGGAUCCACAUCUACGAAUUC…UUCACUGCAGACUUGACGAAGCUG
Method in brief: (§1)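 Mutagenized RNA pools with a 21-nt variable region (0.43 μM) reacted with each biotinyl-aminoacyl-oxazolone at 2–1250 μM. Reactions ran in 50 μL HEPES/NaCl/KCl/MgCl2/CaCl2 buffer with 5% acetonitrile, pH 6.9–7.0, for 90 minutes at room temperature. Streptavidin-captured RNA was quantified by triplicate qPCR and Illumina sequencing, and per-sequence fraction reacted was fit to a pseudo-first-order model with 1000 bootstraps. Catalytic enhancement is median kA divided by the uncatalyzed rate, the low-activity peak of a bimodal Gaussian fit.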

biotinyl-Trp-oxazolone = test: self-aminoacylation, catalytic enhancement (BWO) (fold over background); higher = more active; k-Seq, kA / k0A0; sequences stand for … in GGGAAUGGAUCCACAUCUACGAAUUC…UUCACUGCAGACUUGACGAAGCUG
Method in brief: as §1

Sequence | self-aminoacylation (biotinyl-Phe-oxazolone) | self-aminoacylation (biotinyl-Trp-oxazolone)
CCACACUUCAAGUAAUCGGCC [Fam1B.1 aminoacylation ribozyme variant] | 3.03 | 4.17
CCACACUUCAAUAAAUCGGUC [Fam1B.1 aminoacylation ribozyme variant] | 11.7 | 6.22
CCACAUUUCAACCAAUCGGUC [Fam1B.1 aminoacylation ribozyme variant] | 7.78 | 5.58
CCACUCUUCAAUCAAUCGGUC [Fam1B.1 aminoacylation ribozyme variant] | 33.5 | 20.3
CCACUUCAAACAAUCGCUCUG [Fam1A.1 aminoacylation ribozyme variant] | 3.32 | 2.69
CCCCACUUCAUGCAAUCGGUC [Fam1B.1 aminoacylation ribozyme variant] | 2.57 | 2.78
CGACACUUCAAGCAAUCGGUC [Fam1B.1 aminoacylation ribozyme variant] | 13.4 | 7.38
CGACUUCAAAAAAUCGGUCUG [Fam1A.1 aminoacylation ribozyme variant] | 15.3 | 14
CUACCCUUCAAGCAAUCGGUC [Fam1B.1 aminoacylation ribozyme variant] | 8.35 | 5.52
CUACCUCAAACAAUCGGUCUG [Fam1A.1 aminoacylation ribozyme variant] | 3.14 | 2.19
CUACGUGAAACAAUCGGUCUG [Fam1A.1 aminoacylation ribozyme variant] | 5.84 | 2.03
CUACUUCAAAAAAUCGGUCGG [Fam1A.1 aminoacylation ribozyme variant] | 4.54 | 5.6
CUACUUCAAAAAAUCGGUCUC [Fam1A.1 aminoacylation ribozyme variant] | 8.87 | 5.93
CUACUUCAAACAAUCAGACUG [Fam1A.1 aminoacylation ribozyme variant] | 8.24 | 2.98
CUACUUCAAACAAUCGGAAUG [Fam1A.1 aminoacylation ribozyme variant] | 7.74 | 4.46
CUACUUCAAAGAAUCGGUCUC [Fam1A.1 aminoacylation ribozyme variant] | 4.32 | 3.26

Sequence | self-aminoacylation (biotinyl-Phe-oxazolone) | self-aminoacylation (biotinyl-Trp-oxazolone)
CUACUUCAAAUAAUCGGUCUU [Fam1A.1 aminoacylation ribozyme variant] | 9.54 | 5.86
CUACUUCAACCAAUCGGUGUG [Fam1A.1 aminoacylation ribozyme variant] | 4.96 | 4.66
CUACUUCAAGAAAUCGGUCUG [Fam1A.1 aminoacylation ribozyme variant] | 4.36 | 3.05
CUACUUCAAGCAAUCGGUCUG [Fam1A.1 aminoacylation ribozyme variant] | 13.6 | 7.74
CUACUUCAAGUAAUCGGUCUG [Fam1A.1 aminoacylation ribozyme variant] | 9.14 | 6.74
CUACUUCAGACAAUCGGCCUG [Fam1A.1 aminoacylation ribozyme variant] | 3.82 | 2.23
CUCCUUCAAACAAUCGGACUG [Fam1A.1 aminoacylation ribozyme variant] | 12.9 | 8.83
CUCCUUCAAACAAUCGGUCAG [Fam1A.1 aminoacylation ribozyme variant] | 14 | 7.87
CUCCUUCAAACAAUCGGUCCG [Fam1A.1 aminoacylation ribozyme variant] | 6.9 | 6.67
CUGCCUCAAACAAUCGGUCUG [Fam1A.1 aminoacylation ribozyme variant] | 34.5 | 20.9
CUGCUUCAAACAAUCGAUCUG [Fam1A.1 aminoacylation ribozyme variant] | 7.44 | 2.77
CUUCACCUAGGUCAUCGGGUC [Fam2.2 aminoacylation ribozyme variant] | 3.47 | 2.29
CUUCUUCAAACAAUCGGUGUG [Fam1A.1 aminoacylation ribozyme variant] | 4.48 | 2.46
CUUCUUCAAAUAAUCGGUCUG [Fam1A.1 aminoacylation ribozyme variant] | 10.7 | 7.57
GUACGUCAAACAAUCGGUCUG [Fam1A.1 aminoacylation ribozyme variant] | – | 2.71
